For test [1], the target named is T1, CD3 on primary human pan T cells (human, UniProt P07766 23-207).
T1 construct: whole, on cells; also called CD3e; CD3ε
Nature of the test: flow cytometry on pan CD3 T cells, 1 h at 37 C, AF647 secondary antibody, Geometric Mean. On the technique in general: Flow cytometry measures light scatter and fluorescence of single cells or particles in a stream.

For test [2], the target named is T1, CD3 on primary human pan T cells. Nature of the test: flow cytometry, CD3+ pan T cells of 6 healthy donors; average over pan T cells of 6 healthy donors; 1 hour 37° C. incubation. As for the experimental part:
Flow cytometry was used to evaluate the CD3 arm binding of C3CRB73 to CD3+ pan T cells from 6 different healthy human donors. C3CRB73 and NullxCD3 spFv were tested after 1 hour 37° C. incubation with pan T cells.

The target of test [3] is T2, CD3EG-HSA-6xHis (CD3W220.002) (human, UniProt P07766 22-118; P09693 23-103).
T2 construct: also called human CD3; not shown: human serum albumin (HSA); 6xHis tag
T2 sequence (P07766 other isoform, or with tags, fused parts or gaps): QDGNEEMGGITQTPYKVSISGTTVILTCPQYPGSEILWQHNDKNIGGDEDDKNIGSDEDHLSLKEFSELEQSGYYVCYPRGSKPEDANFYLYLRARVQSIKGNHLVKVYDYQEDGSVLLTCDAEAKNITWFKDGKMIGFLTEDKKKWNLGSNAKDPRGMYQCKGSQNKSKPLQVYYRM
The experiment in a line: SPR, forced degradation: Thermal.

Test [4] addresses T3, Flag/6xhis-CALRdel52 (CALRW12.007) (human, UniProt P27797 18-417).
T3 construct: also called human CALRdel52
T3 sequence (looked up): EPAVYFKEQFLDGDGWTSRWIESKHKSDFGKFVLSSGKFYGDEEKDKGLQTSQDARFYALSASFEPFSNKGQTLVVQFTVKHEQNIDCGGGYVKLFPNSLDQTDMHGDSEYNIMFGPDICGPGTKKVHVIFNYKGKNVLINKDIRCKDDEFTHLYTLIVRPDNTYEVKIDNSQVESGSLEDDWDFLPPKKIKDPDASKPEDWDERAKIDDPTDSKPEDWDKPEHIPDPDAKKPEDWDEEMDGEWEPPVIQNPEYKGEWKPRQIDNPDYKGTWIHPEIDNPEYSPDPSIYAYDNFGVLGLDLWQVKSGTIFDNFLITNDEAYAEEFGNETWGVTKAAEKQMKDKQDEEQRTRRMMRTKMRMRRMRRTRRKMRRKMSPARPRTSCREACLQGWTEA
The experiment in a line: SPR, forced degradation: Thermal. Background: Surface plasmon resonance follows binding to a sensor surface in real time, without labels.

For the next test, the target named is cyno FcRn (cynomolgus monkey, UniProt Q8SPV9 24-297; Q8SPW0 21-119, limits assumed). Nature of the test: FcRn binding, method not stated.
cyno FcRn, sequence (Q8SPV9 24-297 limits assumed, chain 1 of 2): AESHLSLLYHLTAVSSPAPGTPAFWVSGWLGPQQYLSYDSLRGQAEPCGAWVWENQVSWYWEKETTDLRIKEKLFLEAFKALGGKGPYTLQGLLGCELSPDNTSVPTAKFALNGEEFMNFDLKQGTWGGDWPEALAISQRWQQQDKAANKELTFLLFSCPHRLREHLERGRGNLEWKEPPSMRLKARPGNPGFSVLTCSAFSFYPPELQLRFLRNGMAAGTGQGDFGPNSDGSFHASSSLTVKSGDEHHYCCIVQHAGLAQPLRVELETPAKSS
cyno FcRn, sequence (Q8SPW0 21-119 limits assumed, chain 2 of 2): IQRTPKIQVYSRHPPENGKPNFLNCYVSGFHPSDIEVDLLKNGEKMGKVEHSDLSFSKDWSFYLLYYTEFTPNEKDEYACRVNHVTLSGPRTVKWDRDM
For another test, the target named is T4, human FcRn (human, UniProt P55899 24-297; P61769 21-119, limits assumed).
T4 construct: Beta-2-microglobulin is not mentioned
T4 sequence (P55899 24-297 limits assumed, chain 1 of 2): as the sequence (Q8SPV9 24-297 limits assumed, chain 1 of 2) above, with D39N, Q44E, S99G, G189S, N190S, M217L, T269S counted along it
T4 sequence (P61769 21-119 limits assumed, chain 2 of 2): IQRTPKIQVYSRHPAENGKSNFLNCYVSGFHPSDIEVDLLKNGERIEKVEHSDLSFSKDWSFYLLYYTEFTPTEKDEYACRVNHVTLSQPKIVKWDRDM
Nature of the test: FcRn binding, method not stated.

Test [5] has as its target T5, CALRins5 (mutant calreticulin, 5 base pair insertion, Type 2) expressed with MPL on engineered cancer cells (UniProt P27797 18-417).
T5 construct: whole, on cells; On the cell surface in complex with MPL; also called OCI-M2 MPL CALRins5
T5 sequence (looked up): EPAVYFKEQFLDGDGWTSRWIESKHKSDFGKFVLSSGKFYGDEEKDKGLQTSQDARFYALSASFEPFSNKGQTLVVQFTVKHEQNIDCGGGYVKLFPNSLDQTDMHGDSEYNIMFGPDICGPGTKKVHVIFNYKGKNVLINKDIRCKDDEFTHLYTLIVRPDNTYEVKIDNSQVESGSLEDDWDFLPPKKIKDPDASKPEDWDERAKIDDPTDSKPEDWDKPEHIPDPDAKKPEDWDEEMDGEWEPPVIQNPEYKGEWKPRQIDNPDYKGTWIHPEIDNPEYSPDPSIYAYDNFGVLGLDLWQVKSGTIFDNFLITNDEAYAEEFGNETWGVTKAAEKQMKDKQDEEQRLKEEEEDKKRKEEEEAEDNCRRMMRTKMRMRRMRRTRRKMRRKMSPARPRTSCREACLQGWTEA
Nature of the test: flow cytometry on ELF-153 MPL CALRins5 cells, 1 h at 37 C, AF647 secondary antibody, Geometric mean. As for the experimental part: FIGS. 27A-27F depict binding of different CALRmutxCD3 antibodies to CALRmut-negative or CALRmut-positive cells. Flow cytometry was used to evaluate CALRmutxCD3 binding to CALRmut-negative and CALRmut-positive cancer cells in vitro. CALRmutxCD3 antibodies were tested on a panel of cell lines, engineered to express MPL and CALRmut, after 1 hour 37° C. incubation, with subsequent incubation with secondary AF647-labeled antibody. Geometric mean fluorescence intensity of AF647 was measured to determine antibody binding.

Test [6] addresses T6, Avi/his-CalR-Ins5 (CALRW28.004) (human, UniProt P27797 18-417, limits assumed).
T6 construct: also called human CALRins5
T6 sequence (looked up): T5 sequence (looked up)
Nature of the test: SPR, forced degradation: Release.

Test [7] concerns the target T2, CD3EG-HSA-6xHis (CD3W220.002). The experiment in a line: SPR, forced degradation: Release.
Test [8] concerns the target T3, Flag/6xhis-CALRdel52 (CALRW12.007). The experiment in a line: SPR, forced degradation: Release.
The target in test [9] is T7, wild-type calreticulin (CALRwt) expressed with MPL in engineered cancer cells (UniProt P27797 18-417, limits assumed).
T7 construct: whole, on cells; also called OCI-M2 MPL CALRwt
T7 sequence (looked up): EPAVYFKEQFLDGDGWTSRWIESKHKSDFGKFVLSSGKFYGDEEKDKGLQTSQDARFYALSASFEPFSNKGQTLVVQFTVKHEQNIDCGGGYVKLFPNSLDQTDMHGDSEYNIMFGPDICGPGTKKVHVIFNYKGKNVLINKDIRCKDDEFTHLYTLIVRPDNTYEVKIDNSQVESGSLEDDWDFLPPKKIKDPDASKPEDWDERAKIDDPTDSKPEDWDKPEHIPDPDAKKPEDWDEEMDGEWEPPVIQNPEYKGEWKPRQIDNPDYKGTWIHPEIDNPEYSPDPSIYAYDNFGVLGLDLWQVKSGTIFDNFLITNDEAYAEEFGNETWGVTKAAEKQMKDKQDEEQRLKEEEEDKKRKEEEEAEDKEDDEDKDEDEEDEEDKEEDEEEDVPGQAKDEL
The experiment in a line: flow cytometry on OCI-M2 MPL CALRwt cells, 1 h at 37 C, AF647 secondary antibody, Geometric Mean.

T1 sequence (P07766 23-207): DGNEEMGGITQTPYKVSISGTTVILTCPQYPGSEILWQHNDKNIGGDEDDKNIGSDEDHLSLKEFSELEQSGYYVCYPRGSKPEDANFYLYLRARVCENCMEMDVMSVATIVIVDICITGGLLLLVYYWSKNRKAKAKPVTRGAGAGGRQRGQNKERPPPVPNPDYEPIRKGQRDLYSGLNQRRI

B1: C3CRB73 CALRmut x CD3 bispecific antibody (bispecific antibody, human IgG1, kappa, L234A L235A)
heavy: EVQLLESGGGLVQPGGSLRLSCAVSGIDLSNNAISWVRQAPGKGLEYVGVIGNTGDTYYADSAKGRFTISRDSSKTTLYLQMNSLRAEDTAVYFCVRGPPSYSSSVKNIWGQGTLVTVSSASTKGPSVFPLAPSSKSTSGGTAALGCLVKDYFPEPVTVSWNSGALTSGVHTFPAVLQSSGLYSLSSVVTVPSSSLGTQTYICNVNHKPSNTKVDKKVEPKSCDKTHTCPPCPAPEAAGGPSVFLFPPKPKDTLMISRTPEVTCVVVSVSHEDPEVKFNWYVDGVEVHNAKTKPREEQYNSTYRVVSVLTVLHQDWLNGKEYKCKVSNKALPAPIEKTISKAKGQPREPQVYTLPPSREEMTKNQVSLSCAVKGFYPSDIAVEWESNGQPENNYKTTPPVLDSDGSFFLVSKLTVDKSRWQQGNVFSCSVMHEALHNRFTQKSLSLSPGK
light: DIQMTQSPSSVSASVGDRVTITCQSSQSVYNNNWLSWLQQKPGKAPKRLIYDASKLESGVPSRFSGSGSGTDFTLTISSVQPEDAATYYCAGGFTGNVYTFGGGTKVEIKRTVAAPSVFIFPPSDEQLKSGTASVVCLLNNFYPREAKVQWKVDNALQSGNSQESVTEQDSKDSTYSLSSTLTLSKADYEKHKVYACEVTHQGLSSPVTKSFNRGEC
scFv: DIQMTQSPSSLSASVGDRVTITCRARQSIGTAIHWYQQKPGCAPKLLIKYASESISGVPSRFSGSGSGTDFTLTISSLQPEDFATYYCQQSGSWPYTFGQGTKLEIKGGGSGGSGGCPPCGGSGGEVQLVESGGGLVKPGGSLRLSCAASGFTFSRYNMNWVRQAPGKGLEWVSSISTSSNYIYYADSVKGRFTFSRDNAKNSLDLQMSGLRAEDTAIYYCTRGWGPFDYWGCGTLVTVSSEPKSSDKTHTCPPCPAPEAAGGPSVFLFPPKPKDTLMISRTPEVTCVVVSVSHEDPEVKFNWYVDGVEVHNAKTKPREEQYNSTYRVVSVLTVLHQDWLNGKEYKCKVSNKALPAPIEKTISKAKGQPREPQVYTLPPSREEMTKNQVSLWCLVKGFYPSDIAVEWESNGQPENNYKTTPPVLDSDGSFFLYSKLTVDKSRWQQGNVFSCSVMHEALHNHYTQKSLSLSPGK
notes: IgG1-AAS; also called JNJ-88549968; CALRB421 Fab x CD3 spFv
B1: the “EC50 (read off the curve)” value was approximately 7 nM in [1] and approximately 5 nM in test [5]. This molecule came in with an EC50 in [2] of 23.8 nM. Further, the “% Active” value in test [3] came to 94%; in [4], 98%; in test [6], 100%; in test [7], 100%; in [8], 100%. Further, the dissociation constant Kd in test [3] came to 0.225 nM; in [4], 0.0664 nM; with cyno FcRn, 900 nM; with human FcRn it was 1900 nM; in test [6], 0.0331 nM; in [7] it was 0.214 nM. Also, in test [8], the Kd was 0.0602 nM. For the same molecule, in test [9], the binding result is reported as “no binding (tested: 100 nM)”.

As a reminder, the EC50 (read off the curve) is the concentration at which the effect is half-maximal. Read a high EC50 (read off the curve) as weaker potency. One may read the EC50 as the concentration needed to bring the measured effect to its halfway point. As a reminder, the Kd is the equilibrium constant for the complex coming apart.
